Test results: patent publication US20220267469A1 (LIPUM, published 2022)

T1: Mouse BSSL, recombinant (mouse, UniProt Q64285 21-599)
T1 construct: Bought (R&D Systems, Cat. no 5658-CE); also called mBSSL; murine BSSL
T1 sequence: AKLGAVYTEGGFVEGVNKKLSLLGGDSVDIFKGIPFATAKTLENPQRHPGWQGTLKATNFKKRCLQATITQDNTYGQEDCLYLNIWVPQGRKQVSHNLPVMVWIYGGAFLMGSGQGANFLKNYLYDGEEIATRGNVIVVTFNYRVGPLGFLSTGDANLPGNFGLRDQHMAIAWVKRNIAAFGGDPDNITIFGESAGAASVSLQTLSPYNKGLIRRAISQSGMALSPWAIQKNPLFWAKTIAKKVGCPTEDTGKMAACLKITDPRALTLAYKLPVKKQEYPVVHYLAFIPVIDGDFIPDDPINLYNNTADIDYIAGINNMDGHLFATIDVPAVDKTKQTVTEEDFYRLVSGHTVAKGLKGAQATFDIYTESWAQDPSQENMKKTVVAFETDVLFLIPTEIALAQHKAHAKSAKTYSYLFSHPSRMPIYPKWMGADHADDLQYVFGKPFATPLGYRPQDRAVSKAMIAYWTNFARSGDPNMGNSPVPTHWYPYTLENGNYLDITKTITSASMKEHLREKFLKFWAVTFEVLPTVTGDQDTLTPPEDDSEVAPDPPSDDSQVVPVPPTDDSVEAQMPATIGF

T2: Human BSSL (bile salt-stimulated lipase), native (human, UniProt P19835 21-753)
T2 construct: Native full-length protein purified from human milk (Astra Hässle AB); also called hBSSL; non-biotinylated human BSSL
T2 sequence: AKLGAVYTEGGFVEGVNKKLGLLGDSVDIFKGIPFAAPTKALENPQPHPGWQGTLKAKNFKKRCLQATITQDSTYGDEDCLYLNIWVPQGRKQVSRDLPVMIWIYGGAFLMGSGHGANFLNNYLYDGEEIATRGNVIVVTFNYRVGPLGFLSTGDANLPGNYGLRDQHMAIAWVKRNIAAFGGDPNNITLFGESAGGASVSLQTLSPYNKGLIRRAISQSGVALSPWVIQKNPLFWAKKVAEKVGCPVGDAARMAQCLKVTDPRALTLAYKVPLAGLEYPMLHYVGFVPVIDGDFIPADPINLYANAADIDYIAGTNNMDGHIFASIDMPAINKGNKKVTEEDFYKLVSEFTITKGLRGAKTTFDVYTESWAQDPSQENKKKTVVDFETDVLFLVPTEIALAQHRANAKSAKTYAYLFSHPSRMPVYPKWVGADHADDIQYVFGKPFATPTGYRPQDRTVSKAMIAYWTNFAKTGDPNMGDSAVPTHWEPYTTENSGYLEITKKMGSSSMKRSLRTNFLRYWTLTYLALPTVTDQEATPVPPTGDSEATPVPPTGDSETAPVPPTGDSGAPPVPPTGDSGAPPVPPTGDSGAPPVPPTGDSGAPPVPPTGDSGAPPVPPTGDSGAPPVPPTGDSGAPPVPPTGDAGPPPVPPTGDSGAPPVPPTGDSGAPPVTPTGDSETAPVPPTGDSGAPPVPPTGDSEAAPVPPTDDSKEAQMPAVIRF

T3: Biotinylated human BSSL (human, UniProt P19835 21-753, Biotinylated on glycosacarides, 30-40 biotin/BSSL)
T3 construct: hBSSL biotinylated in house; also called b-hBSSL; human BSSL-biotin
T3 sequence: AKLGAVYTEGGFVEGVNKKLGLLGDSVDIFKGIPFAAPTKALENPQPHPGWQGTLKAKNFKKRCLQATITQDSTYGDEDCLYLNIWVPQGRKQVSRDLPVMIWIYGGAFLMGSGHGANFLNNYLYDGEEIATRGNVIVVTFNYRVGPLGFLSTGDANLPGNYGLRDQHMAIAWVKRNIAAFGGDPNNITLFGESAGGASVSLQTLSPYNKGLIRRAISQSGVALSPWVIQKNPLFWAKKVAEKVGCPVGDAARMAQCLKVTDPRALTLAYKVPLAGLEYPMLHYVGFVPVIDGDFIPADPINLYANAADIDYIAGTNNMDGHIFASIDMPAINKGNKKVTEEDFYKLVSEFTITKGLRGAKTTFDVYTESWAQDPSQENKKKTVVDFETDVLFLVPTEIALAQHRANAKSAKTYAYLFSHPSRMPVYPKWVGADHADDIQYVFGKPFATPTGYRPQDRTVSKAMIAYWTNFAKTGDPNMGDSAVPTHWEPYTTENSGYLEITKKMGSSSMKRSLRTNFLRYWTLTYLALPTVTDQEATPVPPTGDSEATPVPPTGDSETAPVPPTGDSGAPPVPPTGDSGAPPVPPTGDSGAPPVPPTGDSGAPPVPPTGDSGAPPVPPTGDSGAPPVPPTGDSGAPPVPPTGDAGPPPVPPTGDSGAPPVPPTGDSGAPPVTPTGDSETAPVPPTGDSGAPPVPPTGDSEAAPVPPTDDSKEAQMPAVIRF


Assays:
Mouse BSSL, recombinant [1] = target: T1, Mouse BSSL, recombinant; assay: SPR steady state, hIgG4 S228P captured by anti-Fab
Procedure, shortened: (§1)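 hIgG4 S228P captured on an immobilized anti-Fab surface; five BSSL concentrations injected, 1:5 dilutions from 50 nM (human) or from 500 nM (mouse). Human BSSL: single-cycle kinetics, 1:1 fit. Mouse BSSL: KD from steady-state equilibrium response versus concentration. Regeneration with 10 mM glycine-HCl pH 2.1.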

[2] = target: T2, Human BSSL (bile salt-stimulated …); assay: SPR single cycle kinetics, hIgG4 S228P captured by anti-Fab
Procedure, shortened: as §1

Mouse BSSL, recombinant [3] = target: T1, Mouse BSSL, recombinant; assay: SPR steady state, captured by anti-Fab, Absolute Antibody batch
Experimental: (§2) Kinetic parameters of the hIgG4 S228P clones were determined by SPR using BIACORE® T200 (GE Healthcare). An anti-Fab antibody (GE #28958325) was immobilized on a CM5 S sensor chip by primary amine coupling using NHS-EDC chemistry. The hIgG4 antibodies were captured by the anti-Fab antibody, and subsequently, five different concentrations of hBSSL (1:5 dilutions, 0.08-50 nM) or mBSSL (1:2 dilutions, 50-800 nM) were injected over the surface. The sensor chip surface was regenerated with 10 mM glycine-HCl pH 2.1. For binding to human BSSL, single cycle kinetic data was fitted to a 1:1 binding model and kinetic parameters were retrieved using software BlAevaluation. For mouse BSSL, a steady state analysis was performed by plotting the response level at equilibrium against each concentration, and KD values were retrieved by the BlAevalution software.

Biotinylated human BSSL [4] = target: T3, Biotinylated human BSSL; assay: flow cytometry displacement assay; 0.5 ug antibody, 1 ug b-hBSSL
Experimental: (§3) The 28 BSSL-specific hIgG4 antibodies and the five reference antibodies at different concentrations (ranging from 0.5 μg to 3.0 μg per reaction; see Table 10) were added to b-hBSSL (1 μg per reaction, see Table 2) in round-bottom polystyrene tubes, lx PBS (pH 7.4) was added to a final volume of 20 μl and the antibody/b-hBSSL mixtures were incubated for 30 min. at +4° C. to facilitate binding of antibodies to BSSL. Buffy coat (50 μl) was then added to each antibody/b-hBSSL mixture and incubation continued for another 30 min at +4° C. Thereafter, 2 ml of FACS lysing solution (BD Biosciences) was added and the cells were incubated for 10 min at room temperature in order to lyse erythrocytes and fix the white blood cells. The cells were then centrifuged for 5 min. at 200×g, the resulting pellets were washed by adding 2 ml of FACS buffer (1×PBS supplemented with 1% FCS and 0.1% NaN3) and centrifuged again. Finally, the supernatants were discarded and the cells were resuspended in the last drop of liquid, approximately 50 μl.
(§4) 5 μl of BV421-labelled anti-human CD14 (BD Biosciences) and 5 μl of BB515-labelled streptavidin (BD Biosciences) was added to each tube and incubated for 30 min, at +4° C., protected from light. Thereafter, cells were washed twice with FACS buffer, resuspended in 500 μl FACS buffer, and run on BD LSRII flow cytometer (BD Biosciences). Finally, data were analyzed using FlowJo software (BD Biosciences).

Biotinylated human BSSL [5] = target: T3, Biotinylated human BSSL; assay: flow cytometry displacement assay; 1.0 ug antibody, 1 ug b-hBSSL
Experimental: as §3, §4

Biotinylated human BSSL [6] = target: T3, Biotinylated human BSSL; assay: flow cytometry displacement assay; 2.0 ug antibody, 1 ug b-hBSSL
Experimental: as §3, §4

[7] = target: T2, Human BSSL (bile salt-stimulated …); assay: SPR single cycle kinetics, captured by anti-Fab, Absolute Antibody batch
Experimental: as §2

[8] = target: T2, Human BSSL (bile salt-stimulated …); assay: cell-based or functional assay
[9] = target: T2, Human BSSL (bile salt-stimulated …); assay: cell-based or functional assay; remark: listed apart in the source
Biotinylated human BSSL [10] = target: T3, Biotinylated human BSSL; assay: flow cytometry displacement assay; 1.5 ug antibody, 1 ug b-hBSSL
Procedure, shortened: (§5)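 Antibody (0.5–3.0 μg per reaction) preincubated with 1 μg biotinylated human BSSL in PBS pH 7.4, 30 min at 4 °C, then with human buffy coat 30 min at 4 °C. After erythrocyte lysis/fixation, bound BSSL on CD14+ monocytes detected by labelled streptavidin via flow cytometry.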

Biotinylated human BSSL [11] = target: T3, Biotinylated human BSSL; assay: flow cytometry displacement assay; 3.0 ug antibody, 1 ug b-hBSSL
Procedure, shortened: as §5

Row | Kd (Mouse BSSL, recombinant [1]) [nM] | Kd [2] [nM] | Kd (Mouse BSSL, recombinant [3]) [nM] | percentage reduction of b-hBSSL binding to CD14+ monocytes (Biotinylated human BSSL [4]) [%] | percentage reduction of b-hBSSL binding to CD14+ monocytes (Biotinylated human BSSL [5]) [%] | Kd [7] [nM] | BSSL hydrolysis of triglycerides, relative value (no antibody = 100%); 0.19 ug antibody [8] [%] | BSSL hydrolysis of triglycerides, relative value (no antibody = 100%); 0.38 ug antibody [8] [%] | BSSL hydrolysis of triglycerides, relative value (no antibody = 100%); 0.75 ug antibody [8] [%] | BSSL hydrolysis of triglycerides, relative value (no antibody = 100%); 1.5 ug antibody [8] [%] | BSSL hydrolysis of triglycerides, relative value (no antibody = 100%); 3.0 ug antibody [8] [%] | BSSL hydrolysis of triglycerides, relative value (no antibody = 100%); 6.0 ug antibody [8] [%] | BSSL hydrolysis of cholesterol esters, relative value (no antibody = 100%); 0.19 ug antibody [9] [%] | BSSL hydrolysis of cholesterol esters, relative value (no antibody = 100%); 0.38 ug antibody [9] [%] | BSSL hydrolysis of cholesterol esters, relative value (no antibody = 100%); 0.75 ug antibody [9] [%] | BSSL hydrolysis of cholesterol esters, relative value (no antibody = 100%); 1.5 ug antibody [9] [%] | BSSL hydrolysis of cholesterol esters, relative value (no antibody = 100%); 3.0 ug antibody [9] [%] | BSSL hydrolysis of cholesterol esters, relative value (no antibody = 100%); 6.0 ug antibody [9] [%] | percentage reduction of b-hBSSL binding to CD14+ monocytes (Biotinylated human BSSL [10]) [%] | percentage reduction of b-hBSSL binding to CD14+ monocytes (Biotinylated human BSSL [11]) [%] | Binder | other results
1 | 161 | 0.6 | 223 | 19 | 21 | 0.6 | – | – | – | – | – | – | – | – | – | – | – | – | – | – | AS20 hIgG4 S228P (antibody, also called AS20 IgG4; AS20 (parental clone)) heavy: not shown light: QIVLTQSPAVMSASPGEKVTMTCSASSSISYMHWYQQKPGTSPKRWIYDTSKLASGVPARFSGSGSGTSYSLTISSMEAEDAATYYCHQRSSYPTFGGGTKLEIKRTVAAPSVFIFPPSDEQLKSGTASVVCLLNNFYPREAKVQWKVDNALQSGNSQESVTEQDSKDSTYSLSSTLTLSKADYEKHKVYACEVTHQGLSSPVTKSFNRGEC | percentage reduction of b-hBSSL binding to CD14+ monocytes (Biotinylated human BSSL [6]): 58%
2 | 24 | 0.7 | 65 | 1 | 9 | 0.6 | 109 | 114 | 125 | 112 | 120 | 113 | 96.2 | 98.2 | 92.2 | 95.2 | 93.7 | 90.2 | 60 | 68 | S-SL048-11 hIgG4 S228P (antibody, V domains shown, also called clone 11; mAb11) VH: QVQLVQSGAEVKKPGASVKVSCKASGYTFTSYNMHWVRQAPGQGLEWMGVIYPGDGATSYAQKFKGRVTMTRDTSTSTVYMELSSLRSEDTAVYYCARDYYGSSPLGYWGQGTLVTVSS VL: DIQMTQSPSSLSASVGDRVTITCSASPSISYMNWYQQKPGKAPKLLIYATSSLASGVPSRFSGSGSGTDFTLTISSLQPEDFATYYCHQRSSYPTFGQGTKLEIKR | –
3 | 95 | 0.9 | 70 | – | – | 0.5 | 107 | 106 | 102 | 88 | 93.9 | 119 | 105 | 103 | 110 | 105 | 106 | 102 | 23 | 58 | S-SL048-118 hIgG4 S228P (antibody, V domains shown, also called clone 118; mAb118) VH: QVQLVQSGAEVKKPGASVKVSCKASGYTFTSYNMHWVRQAPGQGLEWMGVINPGDGATSYAQKFKGRVTMTRDTSTSTVYMELSSLRSEDTAVYYCARDYYGSSPLGYWGQGTLVTVSS VL: DIQMTQSPSSLSASVGDRVTITCSASPSISYMNWYQQKPGKAPKLLIYATSSLPSGVPSRFSGSGSGTDFTLTISSLQPEDFATYYCHQRSSSPTFGQGTKLEIKR | –
